Results taken from article PMC10698194.

Target: mouse KOR-EGFP (mouse) (UniProt P33534)
Sequence (P33534 whole entry): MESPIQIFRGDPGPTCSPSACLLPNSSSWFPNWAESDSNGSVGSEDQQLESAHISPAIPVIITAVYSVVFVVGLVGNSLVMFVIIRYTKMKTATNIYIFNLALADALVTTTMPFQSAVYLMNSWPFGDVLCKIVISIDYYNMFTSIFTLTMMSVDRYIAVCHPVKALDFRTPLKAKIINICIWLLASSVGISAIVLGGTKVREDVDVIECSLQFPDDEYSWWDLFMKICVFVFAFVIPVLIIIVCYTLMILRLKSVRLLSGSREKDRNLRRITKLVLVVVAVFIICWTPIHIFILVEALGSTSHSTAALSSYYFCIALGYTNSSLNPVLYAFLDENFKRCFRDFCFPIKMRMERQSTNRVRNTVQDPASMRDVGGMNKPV

Question: With dynorphin (dyn) A_(1-13) (peptide) as the substance, how does the β-arrestin-2 recruitment (BRET), EC50 read?
Answer: The β-arrestin-2 recruitment (BRET), EC50 was 31 nM.
